Data from patent CN116507641A.
pEC50: −log10 of the molar value.

Key:
[1] = target: 人重组结合素-4蛋白 (recombinant human Nectin-4, extracellular domain) (human) (UniProt Q96NY8); test: ELISA, recombinant human Nectin-4 coated on plate
[2] = target: 人结合素-4 (full-length human Nectin-4 on cells) (human) (UniProt Q96NY8); test: FACS competition: antibody titrated against biotinylated human Nectin-1-His (competitor, 0.75 ug/ml) on CHO-Nectin-4 cells
Chain of 人结合素-4 (full-length human Nectin-4 on cells) (human) (Q96NY8 32-510): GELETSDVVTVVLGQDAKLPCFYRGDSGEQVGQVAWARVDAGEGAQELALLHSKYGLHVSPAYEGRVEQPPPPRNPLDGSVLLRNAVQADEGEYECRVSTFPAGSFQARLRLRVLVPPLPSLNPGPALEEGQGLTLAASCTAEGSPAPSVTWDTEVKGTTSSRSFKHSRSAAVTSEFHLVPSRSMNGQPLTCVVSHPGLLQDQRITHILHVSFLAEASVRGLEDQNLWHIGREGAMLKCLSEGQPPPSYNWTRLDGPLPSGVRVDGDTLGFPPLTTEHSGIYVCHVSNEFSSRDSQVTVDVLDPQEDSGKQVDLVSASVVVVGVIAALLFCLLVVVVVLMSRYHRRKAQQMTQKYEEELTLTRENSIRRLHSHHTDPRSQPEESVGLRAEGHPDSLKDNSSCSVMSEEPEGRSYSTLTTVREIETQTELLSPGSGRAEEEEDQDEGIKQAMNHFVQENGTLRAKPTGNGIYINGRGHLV

Chain of 人重组结合素-4蛋白 (recombinant human Nectin-4, extracellular domain) (human) (Q96NY8 32-349): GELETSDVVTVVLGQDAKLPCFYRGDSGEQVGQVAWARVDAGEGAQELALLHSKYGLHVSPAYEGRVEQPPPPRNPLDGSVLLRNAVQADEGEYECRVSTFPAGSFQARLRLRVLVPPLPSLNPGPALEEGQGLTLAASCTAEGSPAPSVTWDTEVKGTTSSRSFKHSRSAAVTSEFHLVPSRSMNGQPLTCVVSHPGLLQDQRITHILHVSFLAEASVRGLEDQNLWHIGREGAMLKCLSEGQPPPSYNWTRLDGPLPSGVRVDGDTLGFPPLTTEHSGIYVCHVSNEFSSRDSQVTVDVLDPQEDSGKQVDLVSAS

pEC50 [1]: 9.47 | pEC50 [2]: 9.80
Substance: 阳性对照1 (PC1), in-house Nectin-4-specific antibody based on enfortumab antibody (AGS-22M6)
